Measured values from PMC4164784, “4E-BPs require non-canonical 4E-binding motifs and a lateral surface of eIF4E to repress translation” (Nature Communications, 2014).

T1: eIF4E (residues 69–248), purified (Drosophila melanogaster, UniProt P48598-2 69-248)
T1 construct: eIF4E, Drosophila melanogaster, residues 69–248; the methods say the tag was cleaved with HRV3C; also called truncated eIF4E; eIF4E trunc; not shown: His6, N-terminal, cleaved
T1 sequence (looked up): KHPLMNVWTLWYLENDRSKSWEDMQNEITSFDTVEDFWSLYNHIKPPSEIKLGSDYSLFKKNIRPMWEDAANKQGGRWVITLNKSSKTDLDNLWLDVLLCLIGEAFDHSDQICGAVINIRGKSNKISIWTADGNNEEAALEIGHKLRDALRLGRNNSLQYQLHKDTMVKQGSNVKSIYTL

T2: eIF4E (residues 69–248) II-AA, purified (Drosophila melanogaster, UniProt P48598-2 69-248, Ile96 to Ala (II-AA) | Ile112 to Ala (II-AA))
T2 construct: eIF4E, Drosophila melanogaster, residues 69–248; also called eIF4E (II-AA); not shown: His6, N-terminal, cleaved
T2 sequence (looked up): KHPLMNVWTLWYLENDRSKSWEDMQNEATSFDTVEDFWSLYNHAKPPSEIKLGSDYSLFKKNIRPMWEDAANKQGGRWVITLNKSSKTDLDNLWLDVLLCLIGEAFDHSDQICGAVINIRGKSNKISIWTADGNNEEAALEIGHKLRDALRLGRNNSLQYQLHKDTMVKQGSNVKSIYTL

T3: SHN-eIF4E (full length, WT) (Drosophila melanogaster, UniProt P48598-2 1-248)
T3 construct: eIF4E, Drosophila melanogaster; also called SHN-tagged eIF4E; SNH-tagged eIF4E; not shown: Strep-NusA-His (SHN), N-terminal, kept
T3 sequence (looked up): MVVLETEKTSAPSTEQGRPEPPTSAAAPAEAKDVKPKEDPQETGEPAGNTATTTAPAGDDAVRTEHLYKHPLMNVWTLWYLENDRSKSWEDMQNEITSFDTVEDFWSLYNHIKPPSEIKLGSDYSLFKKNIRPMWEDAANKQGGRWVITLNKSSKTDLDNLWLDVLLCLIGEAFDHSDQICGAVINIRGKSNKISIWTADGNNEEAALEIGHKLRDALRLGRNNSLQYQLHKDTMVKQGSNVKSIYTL


What was measured:
[1] = system: firefly luciferase (F-Luc) reporter in S2 cells; test: Translation repression assay, F-Luc reporter in S2 cells; assay type: cell-based, Drosophila melanogaster; conditions: coexpression (HA-CUP 1–402 0.05–0.2 μg, HA-Thor 0.1–0.5 μg plasmid; mutants at highest), 3 days, F-Luc activity normalized to mRNA, three independent experiments
Method: S2 cells were transfected in 6-well plates using Effectene transfection reagent (Qiagen) according to the manufacturers protocol. The transfection mixtures contained: 0.1 μg of F-Luc reporter plasmid (F-Luc-V5), 0.3 μg of control RNA reporter, and increasing amounts of plasmids expressing HA-CUP (fragment 1–402; 0.05–0.2 μg) and HA-Thor (full length, 0.1–0.5 μg). The plasmids expressing the corresponding mutants or the HA peptide control were transfected at the highest concentration. In all the experiments, the cells were collected three days after transfection. The F-Luc activity was measured using the Dual-Luciferase reporter assay system (Promega). The northern blotting was performed as previously described. The F-Luc mRNA levels were determined by northern blotting and were normalized to those of the control RNA. The normalized F-Luc mRNA levels were then used to normalize the F-Luc activity, to obtain translation efficiencies.

[2] = target: T1, eIF4E (residues 69–248), purified; test: ITC; VP-ITC, 20 °C; eIF4E (69–248, WT or mutant, 1–20 μM) in the cell, tenfold concentrated GB1-stabilized peptides titrated in; 20 mM Na-phosphate pH 7.0, 150 mM NaCl; one-site binding model; conditions: both partners purified
[3] = target: T2, eIF4E (residues 69–248) II-AA, purified; test: as above; conditions: both partners purified
[4] = target: T3, SHN-eIF4E (full length, WT); test: pull-down; 'kinetic assay': 1 μM purified SHN-eIF4E–GST-eIF4G complex prebound to Strep-Tactin beads, challenged with 5 μM (CUP, 4E-T) or 10 μM (Thor, eIF4G) competitor for the indicated times; 4 °C; conditions: both partners purified

Row | Molecule | repression of F-Luc reporter expression (in words) [1] | Kd [2] | dH [2] | stoichiometry N [2] | Kd [3] | dH [3] | stoichiometry N [3] | time to 50% dissociation of prebound GST-eIF4G (fivefold molar excess of competitor) [4] | time to 50% dissociation of prebound GST-eIF4G (tenfold molar excess of competitor) [4] | half-life of the eIF4E–eIF4G complexes (tenfold molar excess of competitor) [4]
1 | CUP N-terminal fragment: CUP residues 1–402 (protein, UniProt Q9VMA3 1-402, looked up, fragment, HA tag) MQMAEAEQENGAGALKIATNAGATDRPAHQQLPLPVEDQQDEVLTPAEKGKFEYPPPPPPPTPVQAPLATKATALNASQEHDDDEANSEKWEDPCAPPPPPPLPTSAFLATGLGYLKLPAFKLKDALEKAITKLEANKRTLKASPESSRSIKNKNVVALEMLPRRSNPETIGDGSMLASTSTAVMLQTKKPAVIVEMERRCKIINLLAKQNQILESISGEAIPMHGPSKHLHEDEGLTLQVLSARASTPYTQPSSMLSCTAVSCDLEHDSPRKQVASKEAVPEQQSSQVQQKRPPSTGIHKPGSLRAPKAVRPTTAPVVSSKPVKSYTRSRLMDIRNGMFNALMHRSKESFVMPRIATCDDIELEGRLRRMNIWRTSDGTRFRTRSTTANLNMNNNNNNECM | inhibited the expression of the F-Luc reporter in a dose-dependent manner |  |  |  |  |  |  |  |  | 
2 | CUP C+NC peptide fused C-terminally to GB1 (domain or fragment, Drosophila melanogaster, CUP, Drosophila melanogaster, canonical and non-canonical 4E-BMs; source: E. coli BL21 Star (DE3), purified (amylose, HRV3C cleavage, SEC); not shown: MBP, N-terminal, cleaved; GB1, C-terminal, kept) STGIHKPGSLRAPKAVRPTTAPVVSSKPVKSYTRSRLMDIRNGMFNALMHRSKESFVMPRIATCDDIELEGRLRRMNIWRTSDGTRFRTRSTTANLNMNNNNNNECMPAFFKNKNKPNLISDESIIQSQP |  | 9.1 nM | -34.5 ± 0.35 kcal/mol | 1.05 ± 0.02 | 50 nM | -18.6 ± 0.7 kcal/mol | 0.98 ± 0.01 | 2.5 ± 0.5 min |  | 
3 | eIF4G peptide (residues 578–650) fused C-terminally to GB1 (domain or fragment, Drosophila melanogaster, UniProt O61380 578-650, looked up, eIF4G, Drosophila melanogaster, residues 578–650 (methods and legends); source: E. coli BL21 Star (DE3), purified (amylose, TEV cleavage, anion exchange, SEC); not shown: MBP, N-terminal, cleaved; GB1, C-terminal, kept) PETTLNDKQDSTDLKVKVSAKISSIINYNEGQWSPNNPSGKKQYDREQLLQLREVKASRIQPEVKNVSILPQP |  | 17 nM | -18.5 ± 2 kcal/mol | 0.99 ± 0.08 | 40 nM | -16.24 ± 0.04 kcal/mol | 1.03 ± 0.01 |  | 4 h | 
4 | RYSKVDLLALRYEGKSRQRPQCSTRLELQTLGFWKI (domain or fragment) [4E-T C+NC peptide fused C-terminally to GB1] |  | 5.6 nM | -22.8 ± 3 kcal/mol | 0.95 ± 0.01 | 8.8 nM | -12.9 ± 0.3 kcal/mol | 1.03 ± 0.04 | 22 min |  | 
5 | TKLIYERAFMKNLRGSPLSQTPPSNVPSCLLRGT (domain or fragment) [Thor C+NC peptide fused C-terminally to GB1] |  | 1.4 nM | -16.8 ± 1 kcal/mol | 0.95 ± 0.02 | 470 nM | -7.6 ± 0.3 kcal/mol | 0.97 ± 0.01 |  |  | 37 ± 9 min
